{"source": "paper PMC9482650", "about": "“Quantitative fragmentomics allow affinity mapping of interactomes” (Nature Communications, 2022)", "data": [{"target": "T1, APBA2_1, Q99767", "T1 sequence (Q99767 563-664, limits assumed, looked up)": "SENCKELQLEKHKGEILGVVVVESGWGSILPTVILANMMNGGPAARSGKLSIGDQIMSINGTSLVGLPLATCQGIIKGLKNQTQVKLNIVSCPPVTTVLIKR", "test": "holdup assay", "design": "key: below the threshold = too weak to quantify, mostly under pKd 3.1 to 4", "details": "plain residues with an end cap or a label only (N-terminal biotin on a linker: ado-ado)", "values": [{"binder": "PDGQCTVTEV", "note": "[RNF146, Q9NTX7]", "pKd": "below the threshold"}]}, {"target": "T2, APBA3_1, O96018", "T2 sequence (O96018 389-490, limits assumed, looked up)": "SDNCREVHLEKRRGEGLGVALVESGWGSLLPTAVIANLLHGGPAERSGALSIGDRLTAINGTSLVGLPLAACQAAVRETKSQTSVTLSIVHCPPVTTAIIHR", "test": "holdup assay", "design": "key: below the threshold = too weak to quantify, mostly under pKd 3.1 to 4", "details": "plain residues with an end cap or a label only (N-terminal biotin on a linker: ado-ado)", "values": [{"binder": "PDGQCTVTEV", "note": "[RNF146, Q9NTX7]", "pKd": "below the threshold"}]}, {"target": "ARHGEF12, Q9NZN5-2", "sequence (Q9NZN5 other isoform, or with tags, fused parts or gaps)": "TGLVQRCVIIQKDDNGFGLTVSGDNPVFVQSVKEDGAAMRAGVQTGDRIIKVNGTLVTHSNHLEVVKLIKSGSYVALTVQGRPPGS", "test": "holdup assay", "design": "key: below the threshold = too weak to quantify, mostly under pKd 3.1 to 4", "details": "plain residues with an end cap or a label only (N-terminal biotin on a linker: ado-ado)", "values": [{"binder": "PDGQCTVTEV", "note": "[RNF146, Q9NTX7]", "pKd": 4.77}]}, {"target": "CASK, O14936", "sequence (O14936 487-570)": "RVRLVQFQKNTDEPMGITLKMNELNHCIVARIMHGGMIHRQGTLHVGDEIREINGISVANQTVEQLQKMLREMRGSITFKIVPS", "test": "holdup assay", "design": "key: below the threshold = too weak to quantify, mostly under pKd 3.1 to 4", "details": "plain residues with an end cap or a label only (N-terminal biotin on a linker: ado-ado)", "values": [{"binder": "PDGQCTVTEV", "note": "[RNF146, Q9NTX7]", "pKd": "below the threshold"}]}, {"target": "T3, DFNB31_2, Q9P202", "T3 sequence (Q9P202 274-371, limits assumed, looked up)": "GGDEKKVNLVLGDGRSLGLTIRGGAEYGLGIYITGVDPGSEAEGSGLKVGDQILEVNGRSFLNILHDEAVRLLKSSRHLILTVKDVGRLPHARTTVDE", "test": "holdup assay", "design": "key: below the threshold = too weak to quantify, mostly under pKd 3.1 to 4", "details": "plain residues with an end cap or a label only (N-terminal biotin on a linker: ado-ado)", "values": [{"binder": "PDGQCTVTEV", "note": "[RNF146, Q9NTX7]", "pKd": "below the threshold"}]}, {"target": "DLG2_2, Q15700", "sequence (Q15700 189-283)": "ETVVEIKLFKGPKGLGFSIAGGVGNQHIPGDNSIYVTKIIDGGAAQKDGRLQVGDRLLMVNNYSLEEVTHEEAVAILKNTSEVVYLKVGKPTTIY", "test": "holdup assay", "design": "key: below the threshold = too weak to quantify, mostly under pKd 3.1 to 4", "details": "plain residues with an end cap or a label only (N-terminal biotin on a linker: ado-ado)", "values": [{"binder": "PDGQCTVTEV", "note": "[RNF146, Q9NTX7]", "pKd": 4.9}]}, {"target": "T4, DVL3, Q92997", "T4 sequence (Q92997 244-331, limits assumed, looked up)": "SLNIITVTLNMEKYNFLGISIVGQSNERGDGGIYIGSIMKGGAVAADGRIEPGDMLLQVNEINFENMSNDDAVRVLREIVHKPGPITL", "test": "holdup assay", "design": "key: below the threshold = too weak to quantify, mostly under pKd 3.1 to 4", "details": "plain residues with an end cap or a label only (N-terminal biotin on a linker: ado-ado)", "values": [{"binder": "PDGQCTVTEV", "note": "[RNF146, Q9NTX7]", "pKd": "below the threshold"}]}, {"target": "GORASP1, Q9BQQ3", "sequence (Q9BQQ3 1-208)": "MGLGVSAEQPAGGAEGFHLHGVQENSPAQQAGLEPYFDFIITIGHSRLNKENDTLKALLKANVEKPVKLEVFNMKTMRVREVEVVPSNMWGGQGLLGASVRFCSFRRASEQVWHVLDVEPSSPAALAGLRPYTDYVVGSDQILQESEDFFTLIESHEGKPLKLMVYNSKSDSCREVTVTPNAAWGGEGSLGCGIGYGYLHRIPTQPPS", "test": "holdup assay", "design": "key: below the threshold = too weak to quantify, mostly under pKd 3.1 to 4", "details": "plain residues with an end cap or a label only (N-terminal biotin on a linker: ado-ado)", "values": [{"binder": "PDGQCTVTEV", "note": "[RNF146, Q9NTX7]", "pKd": "below the threshold"}]}, {"target": "GRIP2_3, Q9C0E4", "sequence (Q9C0E4 238-339)": "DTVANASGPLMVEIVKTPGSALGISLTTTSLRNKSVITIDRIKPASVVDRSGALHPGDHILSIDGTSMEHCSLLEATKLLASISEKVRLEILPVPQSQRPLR", "test": "holdup assay", "design": "key: below the threshold = too weak to quantify, mostly under pKd 3.1 to 4", "details": "plain residues with an end cap or a label only (N-terminal biotin on a linker: ado-ado)", "values": [{"binder": "PDGQCTVTEV", "note": "[RNF146, Q9NTX7]", "pKd": "below the threshold"}]}, {"target": "GRIP2_7, Q9C0E4", "sequence (Q9C0E4 934-1023)": "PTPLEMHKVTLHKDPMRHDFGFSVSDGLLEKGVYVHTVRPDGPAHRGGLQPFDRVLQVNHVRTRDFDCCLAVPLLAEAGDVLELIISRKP", "test": "holdup assay", "design": "key: below the threshold = too weak to quantify, mostly under pKd 3.1 to 4", "details": "plain residues with an end cap or a label only (N-terminal biotin on a linker: ado-ado)", "values": [{"binder": "PDGQCTVTEV", "note": "[RNF146, Q9NTX7]", "pKd": 3.56}]}, {"target": "T5, HTRA3, P83110", "T5 sequence (P83110 354-453, limits assumed, looked up)": "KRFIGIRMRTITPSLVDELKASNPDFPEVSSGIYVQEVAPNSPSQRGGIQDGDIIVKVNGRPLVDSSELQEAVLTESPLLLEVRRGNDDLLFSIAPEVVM", "test": "holdup assay", "design": "key: below the threshold = too weak to quantify, mostly under pKd 3.1 to 4", "details": "plain residues with an end cap or a label only (N-terminal biotin on a linker: ado-ado)", "values": [{"binder": "PDGQCTVTEV", "note": "[RNF146, Q9NTX7]", "pKd": "below the threshold"}]}, {"target": "LIMK2, P53671", "sequence (P53671 143-248)": "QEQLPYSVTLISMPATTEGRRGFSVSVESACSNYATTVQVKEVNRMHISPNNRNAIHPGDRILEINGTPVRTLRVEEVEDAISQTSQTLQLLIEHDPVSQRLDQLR", "test": "holdup assay", "design": "key: below the threshold = too weak to quantify, mostly under pKd 3.1 to 4", "details": "plain residues with an end cap or a label only (N-terminal biotin on a linker: ado-ado)", "values": [{"binder": "PDGQCTVTEV", "note": "[RNF146, Q9NTX7]", "pKd": "below the threshold"}]}, {"target": "MAGI1_2, Q96QZ7", "sequence (Q96QZ7 456-580)": "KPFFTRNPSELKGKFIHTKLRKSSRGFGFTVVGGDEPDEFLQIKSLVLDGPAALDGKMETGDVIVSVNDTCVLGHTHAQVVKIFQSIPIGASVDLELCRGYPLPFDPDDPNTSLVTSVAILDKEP", "test": "holdup assay", "design": "key: below the threshold = too weak to quantify, mostly under pKd 3.1 to 4", "details": "plain residues with an end cap or a label only (N-terminal biotin on a linker: ado-ado)", "values": [{"binder": "PDGQCTVTEV", "note": "[RNF146, Q9NTX7]", "pKd": 3.53}]}, {"target": "T6, NHERF3_3, Q5T2W1", "T6 sequence (Q5T2W1 238-333, limits assumed, looked up)": "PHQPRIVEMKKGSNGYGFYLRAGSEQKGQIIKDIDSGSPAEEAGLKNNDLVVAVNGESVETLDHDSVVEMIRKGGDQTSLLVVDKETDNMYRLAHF", "test": "holdup assay", "design": "key: below the threshold = too weak to quantify, mostly under pKd 3.1 to 4", "details": "plain residues with an end cap or a label only (N-terminal biotin on a linker: ado-ado)", "values": [{"binder": "PDGQCTVTEV", "note": "[RNF146, Q9NTX7]", "pKd": "below the threshold"}]}, {"target": "NHERF4_2, Q86UT5", "sequence (Q86UT5 220-308)": "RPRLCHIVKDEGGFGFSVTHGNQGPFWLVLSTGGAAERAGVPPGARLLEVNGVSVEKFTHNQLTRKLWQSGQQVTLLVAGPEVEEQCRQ", "test": "holdup assay", "design": "key: below the threshold = too weak to quantify, mostly under pKd 3.1 to 4", "details": "plain residues with an end cap or a label only (N-terminal biotin on a linker: ado-ado)", "values": [{"binder": "PDGQCTVTEV", "note": "[RNF146, Q9NTX7]", "pKd": 3.59}]}, {"target": "T7, PARD3B_1, Q8TEW8", "T7 sequence (Q8TEW8 196-299, limits assumed, looked up)": "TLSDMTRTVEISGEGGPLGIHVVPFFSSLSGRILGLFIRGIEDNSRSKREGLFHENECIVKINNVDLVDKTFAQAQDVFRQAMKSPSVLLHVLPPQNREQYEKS", "test": "holdup assay", "design": "key: below the threshold = too weak to quantify, mostly under pKd 3.1 to 4", "details": "plain residues with an end cap or a label only (N-terminal biotin on a linker: ado-ado)", "values": [{"binder": "PDGQCTVTEV", "note": "[RNF146, Q9NTX7]", "pKd": "below the threshold"}]}, {"target": "PARD3_3, Q8TEW0", "sequence (Q8TEW0 582-685)": "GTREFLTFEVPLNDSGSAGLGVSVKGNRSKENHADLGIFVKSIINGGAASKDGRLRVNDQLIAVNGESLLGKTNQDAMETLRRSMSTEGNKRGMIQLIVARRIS", "test": "holdup assay", "design": "key: below the threshold = too weak to quantify, mostly under pKd 3.1 to 4", "details": "plain residues with an end cap or a label only (N-terminal biotin on a linker: ado-ado)", "values": [{"binder": "PDGQCTVTEV", "note": "[RNF146, Q9NTX7]", "pKd": "below the threshold"}]}, {"target": "T8, PDZD7_3, Q9H5P4", "T8 sequence (Q9H5P4 857-944, limits assumed, looked up)": "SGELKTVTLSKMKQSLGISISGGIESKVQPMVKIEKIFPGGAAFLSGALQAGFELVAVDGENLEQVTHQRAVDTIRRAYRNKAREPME", "test": "holdup assay", "design": "key: below the threshold = too weak to quantify, mostly under pKd 3.1 to 4", "details": "plain residues with an end cap or a label only (N-terminal biotin on a linker: ado-ado)", "values": [{"binder": "PDGQCTVTEV", "note": "[RNF146, Q9NTX7]", "pKd": 5.09}]}, {"target": "SCRIB_1, Q14160", "sequence (Q14160 718-814)": "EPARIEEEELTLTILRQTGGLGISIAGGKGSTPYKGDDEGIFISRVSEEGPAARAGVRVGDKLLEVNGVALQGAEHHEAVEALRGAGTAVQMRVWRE", "test": "holdup assay", "design": "key: below the threshold = too weak to quantify, mostly under pKd 3.1 to 4", "details": "plain residues with an end cap or a label only (N-terminal biotin on a linker: ado-ado)", "values": [{"binder": "PDGQCTVTEV", "note": "[RNF146, Q9NTX7]", "pKd": 4.68}]}, {"target": "SCRIB_3, Q14160", "sequence (Q14160 999-1103)": "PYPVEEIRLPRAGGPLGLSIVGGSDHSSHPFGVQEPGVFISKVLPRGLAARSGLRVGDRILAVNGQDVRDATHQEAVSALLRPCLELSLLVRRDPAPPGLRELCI", "test": "holdup assay", "design": "key: below the threshold = too weak to quantify, mostly under pKd 3.1 to 4", "details": "plain residues with an end cap or a label only (N-terminal biotin on a linker: ado-ado)", "values": [{"binder": "PDGQCTVTEV", "note": "[RNF146, Q9NTX7]", "pKd": 4.72}]}, {"target": "T9, SIPA1L2, Q9P2F8", "T9 sequence (Q9P2F8 945-1036, limits assumed, looked up)": "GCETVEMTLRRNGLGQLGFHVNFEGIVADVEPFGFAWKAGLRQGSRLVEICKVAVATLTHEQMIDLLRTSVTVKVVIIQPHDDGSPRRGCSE", "test": "holdup assay", "design": "key: below the threshold = too weak to quantify, mostly under pKd 3.1 to 4", "details": "plain residues with an end cap or a label only (N-terminal biotin on a linker: ado-ado)", "values": [{"binder": "PDGQCTVTEV", "note": "[RNF146, Q9NTX7]", "pKd": "below the threshold"}]}, {"target": "T10, SNTA1, Q13424", "T10 sequence (Q13424 82-180, limits assumed, looked up)": "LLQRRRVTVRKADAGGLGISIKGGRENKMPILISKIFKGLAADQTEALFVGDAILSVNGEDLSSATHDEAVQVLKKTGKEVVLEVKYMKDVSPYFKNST", "test": "holdup assay", "design": "key: below the threshold = too weak to quantify, mostly under pKd 3.1 to 4", "details": "plain residues with an end cap or a label only (N-terminal biotin on a linker: ado-ado)", "values": [{"binder": "PDGQCTVTEV", "note": "[RNF146, Q9NTX7]", "pKd": 4.23}]}, {"target": "T11, SNTG1, Q9NSN8", "T11 sequence (Q9NSN8 52-150, limits assumed, looked up)": "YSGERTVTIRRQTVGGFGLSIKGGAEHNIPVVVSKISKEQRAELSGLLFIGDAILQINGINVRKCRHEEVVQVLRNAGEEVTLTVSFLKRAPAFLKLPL", "test": "holdup assay", "design": "key: below the threshold = too weak to quantify, mostly under pKd 3.1 to 4", "details": "plain residues with an end cap or a label only (N-terminal biotin on a linker: ado-ado)", "values": [{"binder": "PDGQCTVTEV", "note": "[RNF146, Q9NTX7]", "pKd": 4.68}]}, {"target": "TJP1_2, Q07157", "sequence (Q07157 181-274)": "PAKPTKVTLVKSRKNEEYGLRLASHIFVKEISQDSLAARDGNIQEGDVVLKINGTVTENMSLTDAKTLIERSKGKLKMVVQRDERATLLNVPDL", "test": "holdup assay", "design": "key: below the threshold = too weak to quantify, mostly under pKd 3.1 to 4", "details": "plain residues with an end cap or a label only (N-terminal biotin on a linker: ado-ado)", "values": [{"binder": "PDGQCTVTEV", "note": "[RNF146, Q9NTX7]", "pKd": "below the threshold"}]}, {"target": "TJP2_1, Q9UDY2", "sequence (Q9UDY2 24-128)": "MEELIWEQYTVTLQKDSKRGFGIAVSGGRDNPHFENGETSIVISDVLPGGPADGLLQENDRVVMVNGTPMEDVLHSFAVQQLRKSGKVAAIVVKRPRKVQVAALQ", "test": "holdup assay", "design": "key: below the threshold = too weak to quantify, mostly under pKd 3.1 to 4", "details": "plain residues with an end cap or a label only (N-terminal biotin on a linker: ado-ado)", "values": [{"binder": "PDGQCTVTEV", "note": "[RNF146, Q9NTX7]", "pKd": "below the threshold"}]}, {"target": "T12, TJP3_3, O95049", "T12 sequence (O95049 375-456, limits assumed, looked up)": "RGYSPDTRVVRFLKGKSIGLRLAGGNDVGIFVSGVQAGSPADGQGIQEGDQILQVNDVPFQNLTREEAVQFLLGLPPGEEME", "test": "holdup assay", "design": "key: below the threshold = too weak to quantify, mostly under pKd 3.1 to 4", "details": "plain residues with an end cap or a label only (N-terminal biotin on a linker: ado-ado)", "values": [{"binder": "PDGQCTVTEV", "note": "[RNF146, Q9NTX7]", "pKd": "below the threshold"}]}]}
